Data on 16 sequences can be found in a protein production outcome set (Wang et al. 2014).

The data set can be described thus: label from the status in PepcDB records.

As to “MSSECDGGSKAVMNGLAPGSNGQDKDMDPTKICTGKGAVTLRASSSYRETPSSSPASPQETRQHESKPGLEPEPSSADEWRLSSSADANGNAQPSSLAAKGYRSVHPNLPSDKSQDSSPLLNEVSSSLIGTDSQAFPSVSKPSSAYPSTTIVNPTIVLLQHNREQQKRLSSLSDPVSERRVGEQDSAPTQEKPTSPGKAIEKRAKDDSRRVVKSTQDLSDVSMDEVGIPLRNTERSKDWYKTMFKQIHKLNRDDDSDLYSPRYSFSEDTKSPLSVPRSKSEMSYIDGEKVVKRSATLPLPARSSSLKSSSERNDWEPPDKKVDTRKYRAEPKSIYEYQPGKSSVLTNEKMSRDISPEEIDLKNEPWYKFFSELEFGKPTNLDKDLSLCQTELEADLEKMETLNKAPSANVPQSSAISPTPEISSETPGYIYSSNFHAVKRESDGAPGDLTSLENERQIYKSVLEGGDIPLQGLSGLKRPSSSASTKVHSRTFNTSNALGPVCKHKKPLSAAKACISEILPSKFKPRLSAPSALLQEQKSILLPSEKAQSCENLCVSGSLNDSKRGLPLQVGGSIENLLMRSRRDYDSKSSSTMSLQEYSTSGRRPCPLSRKAGMQFTMLYRDMHQINRSGLFLGSISSSSSVRDLASHFEKSSLALSRGELGPSQEGSEHIPKHTVSSRITAFEQLIQRSRSMPSLDLSGRLSKSPTPVLSRGSLTSARSAESLLESTKLHPKEMDGMNSSGVYASPTCSNMAHHALSFRGLVPSEPLSTCSDDVDRCSNISTDSREGSGGSVHGDFPKHRLNKCKGTCPASYTRFTTIRKHEQQQTSRQPEWRLDARGDKSTLLRNIYLMSPLPFRLKKPLHHHPRQPSPGDSSGLLVGQKPDLPSQPHQDQPPSGGKPVVPTRLSSRHTMARLSRSSEPSQERPTALEDYPRAINNGNSVPYSDHSLDRNNNPQSELAPSRGDSESPRHFIPADYLESTEEFIRRRHDDKEMRPARAKFDFKAQTLKELPLQKGDIVYIYKQIDQNWYEGEHHGRVGIFPRTYIELLPPAEKAQPKKLTPVQVLEYGEAIAKFNFNGDTQVEMSFRKGERITLLRQVDENWYEGRIPGTSRQGIFPITYVDVIKRPLVKNPVDYMDLPFSSSPSRSATASPQQPQAQQRRVTPDRSQTSQDLFSYQALYSYIPQNDDELELRDGDIVDVMEKCDDGWFVGTSRRTKQFGTFPGNYVKPLYL”, the protein production entry was “not failed”.
As to “MSSESRNLNRFFLYFAGILIFFIYITPCLATYNFEGTPEQDELIEITSGTVKGGLYVDGGEGLKKTPYVQEFNVPGDVVTWARVYVGVWGGTEEKTGTLDLTINGEEFESLDLEGKNDKGDDEDQNPAIYCTGHGVYWIAYDVGTNISTGPVTVEAQTEGDIDGRVYGIILAAVYEDKEGQSTKYWVEEGNINLHGKGWSETLASTHDEGYADFSGKVDTDKYNTANLAVVYLCGTPGLDDSLYFNEEQLSDGENSNDIANSKSYFDFKFFDVLDLLEEDDNELKFQRDEEDYVHPVLAALTLGTGEEGTSDLIVSGLTVPLLYAGKDNTIKASIKNIGKDSAYGFQAALYADGEIVSTAPVSSLSSGKSKTIEFNWKPAWDGEQALKVYVDYTNKKKETCEVNNWNSPFLAKVVDLTPPELEIDYPEDGARVDAGYLTVSGTIEDTNRNLTVDVNGQNALISGESWSASVPVVSGPNTIVVSAVDGENNTGRELIVVEGKESSTDSKESSQSDLTVSSKAENETEPVNQSILGSQTREYEKQAVLSPISEGIGFISAILFLRYRNRGKRL”, the protein production result is listed as “failed”.
Under “MSSFVLDKEAFVRRVKRLYTEWRAPSIGHDDALRNLDCIMSIVGVEEDVMYSKSMALQLWLLGYELTDTISVFCSDAVYFLTSKKKIEFLKQTQNITEEGFPEINLLVRDRTDKDQGNFEKLIKALQNSKKGKRLGVFAKDAYPGEFSEAWKKSLTASKFEHVDISTIIAYLMCPKDESEINNIRKASLVSMDIFNKYLKDEIMDIIDSDRKVKHNKLSDGCEAAIGEKKYTSGLDPRLLDMAYPPIIQSGGAYSLKFSAVADKNPLHFGVIVCSLGARYKSYCSNISRTFLVNPTEAMQENYTFLVSV” stands “failed”; under “MSSIKIECVLPENCRCGESPVWEEVSNSLLFVDIPAKKVCRWDSFTKQVQRVTMDAPVSSVALRQSGGYVATIGTKFCALNWKEQSAVVLATVDNDKKNNRFNDGKVDPAGRYFAGTMAEETAPAVLERHQGALYSLFPDHHVKKYFDQVDISNGLDWSLDHKIFYYIDSLSYSVDAFDYDLQTGQISNRRSVYKLEKEEQIPDGMCIDAEGKLWVACYNGGRVIRLDPVTGKRLQTVKLPVDKTTSCCFGGKNYSEMYVTCARDGMDPEGLLRQPEAGGIFKITGLGVKGIAPYSYAG”, “failed”.
On to “MSSKEEILSILEAFASTERMGSFFLDNATADFLFIRPSGNPLDAKGFENMWSSGDLVLESAEITKVHKFELLGSNAAICVFTLGSKFTYKGTQNDDLPTVTSIFKKIDEKWKVAWMQRSSGQSDMTLWNE”, for which the protein production result is “not failed”.
“MSSKIDALKITVLSLSLCFSVSSLSATVNKTVKQKKNVIYILTDDQRYDEVGFLNPRIDTPNMDKLAAGGVYFKNAFVTTALCSPSRATILTGQYMHNHGVVDNNNPAKESSVYFPSYLQEVGYETSFFGKWHMGGHGDSPQPGFDHWLSFAGQGHYYPKKDKKGRTNKININGERVDQKGYITDELTDYAVDWLDKRDSDKPFFMYLSHKAVHSNFDPAPRHKDQYSDVAIEVPESQADTPENYAGKPMWVKNQRNSWHGVDFPYHSEMDVQEYKRQYHRALSAVDDSLGRVLKWLKDNNLENDTIVMLMGDNGFMFGEHGLIDKRNAYEESMRVPLLAYAPGYFKPGTVVDEMVANLDIAPTILEIAGAKKPAHFDGDSWLPLAKNKEVNQWRENFLYEYYWEFNYPSTPTTFALRTDNYKLIQYHGVWDTEELYDLKNDPKEMNNLINTPKHQPLIAQMRHDLFNLLVNKKGDNVIPYTEKYTPGAVYRERDRGETADFPDNWLKKEGDDGLRTFLRIKPIKDKKDDKKKSAKH”: the protein production entry is recorded as “failed”.
On to “MSSLAQREERSSDGREPARAWAVTIVVLGLLLVIWPFVRTPPLPIAPAYAHLLGAWLGAVVALAAMARALRPHRRRGPPDA”, for which the protein production result was “failed”.
Take “MSSLLGTFLYTLETTLPVFAMVFIGIGLRRIGWIDQGFIATASALVFKATLPTLVFLSIIRADLDTTLSISMLIFYFLATLASFALVWFWATKRVRQEDRGVYVQGAFRGNCGIVGLALAANLYGDYGLSAGGLLLGLVIVVYNSLSVIVLLAYQPGKTMSLSNTLRDIARNPLIIGVVLAIPFAAFEITLPGWVMTSGDYFASLTLPLALLCIGATVSLKSIRSDSGPAMGSSIWKMVSLPALCTLVAWLAGFEGRELGLMFLFFASPTAAASFVMVKALGGNDRMAANIIALTTLLASVTVTTGVFVLQSIGVA”: the protein production entry is given as “failed”.
Turning to “MSSLMMHCLIHVQELMNVKGIVVDELTGRSGPDHAKSLDPRTSLLRLITRPLGRVPPRESLDHFTRPPGRVSSPLPPSPSLDYILDVELQSLLHSALNQTLEHKEEKKTPAIHSTSHSTTLVEYSS”, the protein production entry is given as “failed”.
“MSSLTIILIAAISAVLAFLIIFLLKSILFPKKRARIEKNLKSGKYGAAIKDAKSILSKNPRDSEARYLLGKAYLADKKVDLAFIEFKTLNKTAVFNNPATEIEFRTIIADLYLKFQQPDEALKEFMLLNKRDPKNPKPYFQAGQIYESKNMSDQAIAYFQKAIEVDSRFAEAYASLGLLLFKANQIPEAEKAIATALKLAPDNSETLYYHGKILKSKKNYAQALSALEKAARKQEIRSKCFFERGCCYLETNSLEKAEFEFTRAIKSSKQLSAPEVLYSRYLLADCYERQRNIDQAIEQWEAISAVNPKFRNTAQKLAEYSDLRTNDHMKEYLTLIKEEFFKMCRDITEQYFDYPVQALKETKMGCTILAVEKGSEQWLNTRKKPQLLIFSRDGHTITESFLRSVHEEMKKQAVVTSHIITSGAFSPDAIKFAENRPFNLIDRQKLERIVEKVKFTF”: the protein production entry is “failed”.
Under “MSSLTSVELNFLVFRYLQESGFTHAAFTLGYEAGINKSNIDGNMVPPGALIKFVQKGLQYMEMEANLSNSEVDIDEDFSFFQPLDLISKDVKELQDMLREKKRKERDMEKERDRSKENDKGVEREHEGDRNRAKEKDRHEKQKEREREREKLEREKEREREKIEREKEREREKMEREIFEREKDRLKLEKEREIEREREREKIEREKSHEKQLGDADREMVIDQTDKEIAGDGSTGAEPMDIVMTPTSQTSHIPNSDVRILEGHTSEVCACAWSPSASLLASGSGDATARIWSIPEGSFKAVHTGRNINALILKHAKGKSNEKSKDVTTLDWNGEGTLLATGSCDGQARIWTLNGELISTLSKHKGPIFSLKWNKKGDYLLTGSVDRTAVVWDVKAEEWKQQFEFHSGPTLDVDWRNNVSFATSSTDSMIYLCKIGETRPAKTFTGHQGEVNCVKWDPTGSLLASCSDDSTAKIWNIKQSTFVHDLREHTKEIYTIRWSPTGPGTNNPNKQLTLASASFDSTVKLWDAELGKMLCSFNGHREPVYSLAFSPNGEYIASGSLDKSIHIWSIKEGKIVKTYTGNGGIFEVCWNKEGNKIAACFADNSVCVLDFRM” stands “failed”; under “MSSLVGLHYATVLPLAAYLLLAVVILLLAMGRDGAARKTFTASLLMIVLGWIPYIAAFLLLDYSLDEVAKNASDELSPYLRIGAAWSGGGGSLYLFSAFLSLAILLQMLLNKGLNRRAMAVFTLLVLTSMTSATLMGAFGTGPGERGGLGINPVLKNYWVVPHPTTTFLGYSFILVGSVALVLGYYRTGLPIQLLGLAFLTFGLVFGGMWSYETFGWGGYWAWDPVETSQLAVWLATVASIHMIGPLRSLNRGFAAYAASSVFLALYVTRSGVSPLHSFAAESFSAVLLLSASLVMLALSMLLFSEGVGETLEKWKSRLQDARWPPRIAEMNLSNILLTVGSVSIALSALIVYSSLLTPSVLKLVGLDTQPPSFEQGVRFYNRLLIPLALVSLYAVAGYYVSVRAGAKAAYSLFATLTVVLAIMGLATVKNTIIISPLSDTTTNLASATLLAAGSISGSVLLAMSLWMLYGMVKGKVAKSVHTLRIVLEKLVHATMIMILVSVAMSGSYAYNQGYSEEVLVPLGGEVSVMGVTISYEGYDYELHQGTVDLKNNLDPSSAILITAREALNMMDEDLSSTIREYRLASAESQSDRTLQTLLKASASNSEYRGVFTSTRGVADAAVVDVRTGENISNIQTAGETVLQLEDPTLEVTIDPKLDPETGRIEGGALSVVFYPERLVVYGIGSPVSLDPYSYLYVRFREPVEINLDDITVNMEEVVVYSTGGSSIEGVVSGQSVLFEGVAIRVVSGELSFGSMNIELPYQLDRGEFFYFMVYKGQAEVLDDILSSSISDLLESGIAGLAAGEDMDDFNVPRRAPAGVSLRLFMEVNGEPVEADLRFEANGEAIGIHGLVIDTIILRRGLTNVYITVQAPLVSGHFGEYHELMVYYLNEAMNTLRPEEYLALASVMAAGYNIASIVSSPSKERAALEVERATIDLYLLSEKLDEKRSSAAEGIVVSVKIVPGVPLLWLTGVLAGVLLLAMASIHFYLGFRQGRLIDT”, “failed”.
“MSSMVEVEHWNTLRLRIYIGENDKWEGRPLYKVIVEKLREMGIAGATVYRGIYGFGKKSRVHSSDVIRLSTDLPIIVEVVDRGHNIEKVVNVIKPMIKDGMITVEPTIVLWVGTQEEIKKFEEDAIAERQ”: the protein production entry is on record as “not failed”.
Take “MSSNIAVVGDRDTVTGFRLGGVREGYVVETPDEAEETIRNLIRDGFSIIIVTEKIGDELREFIEETTSSSALPMIIEIPDKTGPSERETDPLRDLIKRVIGVEMVK”: the protein production result is given as “failed”.
Under “MSSNVPADMINLRLILVSGKTKEFLFSPNDSASDIAKHVYDNWPMDWEEEQVSSPNILRLIYQGRFLHGNVTLGALKLPFGKTTVMHLVARETLPEPNSQGQRNREKTGESNCCVIL” stands “not failed”; under “MSSPGGGTRFALVAGTTETAGRAGISAAGADPELMSVTPAADAELVTYGTPVRTDVTPVSPSGCPTPALVTRAAREVLGFDVTVVDGGLAEKTGAPTVSVGARPGKDIAEQDPVSTAHGAFAAARQFGQSLPADELYLGETIPGGTTTALGVLRALGEDGMVSSSLPENPTAQKSEVVAEGLQASSLEPGDAANEPKRAVRRMGDPVLATLAGLTAGAVESDTAVTLAGGSQCVAVAALVRHGGYEGPLGLATTSYVADDESADVRASVDRLDLDLTVTDPGFDRSDHVAMERFVAGEAKEGVGMGGALALAD”, “not failed”.
